Assay results taken from patent US20090075340A1 (Novo Nordisk, published 2009).

Target: KIR2DL1 expressed on YTS-2DL1 NK cells (human, UniProt P43626 22-348)
Assay: cell-based or functional assay

Chain of KIR2DL1 expressed on YTS-2DL1 NK cells (P43626 other isoform, or with tags, fused parts or gaps limits assumed): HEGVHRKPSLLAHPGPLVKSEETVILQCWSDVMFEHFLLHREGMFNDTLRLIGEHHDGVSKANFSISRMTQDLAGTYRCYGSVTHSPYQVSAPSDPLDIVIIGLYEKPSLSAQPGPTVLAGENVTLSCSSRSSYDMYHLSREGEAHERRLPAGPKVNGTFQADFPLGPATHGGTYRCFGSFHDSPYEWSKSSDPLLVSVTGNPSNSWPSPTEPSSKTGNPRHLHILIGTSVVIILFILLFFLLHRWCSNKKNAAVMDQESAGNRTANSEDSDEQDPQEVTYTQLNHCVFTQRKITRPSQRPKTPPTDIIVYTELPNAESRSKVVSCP

Binder | killing of LCL 721.221-Cw4 cells by YTS-2DL1, fold over killing in the absence of mAb's
murine IgG1 monoclonal antibody 1-26F117-A3 (antibody, V domains shown) VH: EVQLQQSGPELVKPGASVKISCKASDYSFTGYFMNWVMQSQEKSLEWIGRINPFNGDAFYNQKFKGKATLTVDKSSNTAHMELRSLTSEDSAVYYCARLDYRGYFFDYWGQGTTLTVSS VL: DIVMTQSQKFMSTTVGDRVSITCKASQSVGSAVGWYQQKPGQSPKLLIYSASTRYTGVPDRFTGSGSGTDFTLTITNMQSDDLADYFCHQYSRYPLSFGSGTKLEMKR | 3.7 fold
murine IgG1 monoclonal antibody 1-26F117-A4 (antibody, V domains shown) VH: QVQLKESGPGLVAPSQSLSITCTVSGFSLTDYGVSWVRQPPGKGLEWLGLIWGDGRTNYHSALISRLSISKDNSKSQVFLKLNSLQIDDTATYYCARRGAMDYWGQGTSVTVSS VL: DIVMTQSQKFMSTTVGDRVSITCKASQSVGSAVGWYQQKPGQSPKLLIYSASTRYTGVPDRFTGSGSGTDFTLTITNMQSDDLADYFCHQYSRYPLSFGSGTKLEMKR | ~2 fold
